# Assay results published in article PMC3698035, “Nectin-2 is a potential target for antibody therapy of breast and ovarian cancers” (Molecular Cancer, 2013).
# B1: Nectin-2-ED-hFc (Fc fusion, human, UniProt Q92692 32-361, looked up)
# chain: QDVRVQVLPEVRGQLGGTVELPCHLLPPVPGLYISLVTWQRPDAPANHQNVAAFHPKMGPSFPSPKPGSERLSFVSAKQSTGQDTEAELQDATLALHGLTVEDEGNYTCEFATFPKGSVRGMTWLRVIAKPKNQAEAQKVTFSQDPTTVALCISKEGRPPARISWLSSLDWEAKETQVSGTLAGTVTVTSRFTLVPSGRADGVTVTCKVEHESFEEPALIPVTLSVRYPPEVSISGYDDNWYLGRTDATLSCDVRSNPEPTGYDWSTTSGTFPTSAVAQGSQLVIHAVDSLFNTTFVCTVTNAVGMGRAEQVIFVRETPNTAGAGATGGI
# modifications: europium N1 ITC chelate (only on the Eu-labeled copy added in solution in the Nectin-2-Nectin-2 assay)
# notes: signal peptide in the construct; Nectin-2, cloned from cDNA of the A549 human lung cancer cell line, extracellular domain a.a; 1-361; Plasmid pcDNA3.1-Nectin-2-ED-hFc; In the Nectin-2-Nectin-2 assay one copy was unlabeled on the plate and the other Eu-labeled in solution; also called Nectin-2 extracellular domain (a.a. 1-361) fused to the human IgG1 Fc region; source: FreeStyle 293 F cells, …
# Molecular target: the molecule itself
# Assay: ELISA; ELISA-based time-resolved fluorescence spectroscopy assay; unlabeled Nectin-2-ED-hFc immobilised on a Delfia Clear Strip Plate, Eu-labeled Nectin-2-ED-hFc at 3.2 ug/mL added together with anti-Nectin-2 mAb at 30 ug/mL or a human IgG control, 1.5 h at room temperature
protein,measurement,value
B1,binding result,binds
